From US20050080013A1 (Pfizer, published 2005)
Non-standard residues stand in square brackets, D forms with d. No end group written: not given here. *: point of attachment. Nal = naphthylalanine (isomer not specified); Dansyl = CN(C)c1cccc2c(S(=O)(=O)*)cccc12; Aib = CC(C)(N)C(=O)O

T1: lecithin:cholesterol acyltransferase (LCAT), purified from human plasma (human, UniProt P04180 25-440)
T1 sequence (looked up): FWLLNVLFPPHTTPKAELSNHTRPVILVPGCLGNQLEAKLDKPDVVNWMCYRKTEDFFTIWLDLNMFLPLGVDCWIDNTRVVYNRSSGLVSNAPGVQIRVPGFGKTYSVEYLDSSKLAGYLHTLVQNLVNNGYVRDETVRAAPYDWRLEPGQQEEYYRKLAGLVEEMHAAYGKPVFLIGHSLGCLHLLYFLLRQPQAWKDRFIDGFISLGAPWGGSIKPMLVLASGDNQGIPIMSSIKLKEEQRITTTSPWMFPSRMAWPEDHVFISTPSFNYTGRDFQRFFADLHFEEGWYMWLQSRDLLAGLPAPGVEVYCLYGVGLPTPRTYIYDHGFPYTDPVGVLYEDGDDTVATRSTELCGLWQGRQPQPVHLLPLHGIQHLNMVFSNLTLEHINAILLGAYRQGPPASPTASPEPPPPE


molecular target: T1, lecithin:cholesterol acyltransferase …; assay: cell-based or functional assay

ACTIVITY (%) LCAT [%]	Binder
0	Ac-PVLDLFREGLEELKQKLK-NH2 [peptide 228]
38	Dansyl-PVLDLFRELLNELLEALKQKLK [peptide 30]
98	PVLDLFRELLNELLEWLKQKLK [peptide 3]
3	DWFKAFYDKFFEKFKEFF [peptide 247]
25	PVLDEFREKLWE[Aib]LEALKQKLK [peptide 43]
18	PVLDLFRELLNELLEALKQKKK [peptide 56]
17	LVLDLFRELLNELLEALKQKLK [peptide 59]
47	PVLDLFRELLNELLELLKQKLK [peptide 26]
5	DWFKAFYDKVAEKFKEAF [peptide 243]
24	PVLDEFREKLNE[Aib]LEALKQKLK [peptide 45]
80	PVLDLFRELLNE[Aib]LEALKQKLK [peptide 6]
54	PVLDLFRELLNELLEGLKQKLK [peptide 22]
53	PVLDLFRELLNELLEALQKKLK [peptide 24]
20	PVWDEFREKLNE[Aib]LEALKQKLK [peptide 52]
22	PVLDLFRNLLEKLLEALEQKLK [peptide 49]
57	PVLDLFREGLNELLEALKQKLK [peptide 20]
21	PVLDLFRELLWE[Aib]LEALKQKLK [peptide 50]
93	PVLDLFRELLNELLEALKQKLK [peptide 4]
16	PVLDEWREKLNE[Aib]LEALKQKLK [peptide 62]
31	PLLELLKELLQELLEALKQKLK [peptide 36]
39	AVLDLFRELLNELLEALKQKLK [peptide 29]

ACTIVITY (%) LCAT [%]	Binder
19	PLFRELLNELLEALKQKLK [peptide 55]
18	PVLDEFREKLNE[Aib]LEALKQKL [peptide 58]
19	Ac-EWLKAFYEKVLEKLKELF-NH2 [peptide 238]
34	PVLDLFLELLNE[Aib]LEALKQKLK [peptide 31]
51	PVLDFFRELLNE[Aib]LEALKQKLK [peptide 25]
5	DWLKAFYDKVAEKLKEAF [peptide 244]
16	PVLDEFRWKLNE[Aib]LEALKQKLK [peptide 61]
16	PVLDFFREKLNE[Aib]LEALKQKLK [peptide 63]
16	PVLDLFRELLNELLEALKQ [peptide 60]
57	XVLDLFRELLNELLEALKQKLK (D-Pro (p) at 1) [peptide 21]
54	PLLELFKELLQELLEALKQKLK [peptide 23]
4	DWLKAFYDKVFEKFKEFF [peptide 245]
25	PVLDEFREKLNE[Aib]WEALKQKLK [peptide 42]
23	VLDLFRELLNEGLEALKQKLK [peptide 47]
40	PVLDLFRELLNELWEALKQKLK [peptide 28]
8	DWFKAFYDKVFEKFKEFF [peptide 241]
4	EWLEAFYKKVLEKLKELF [peptide 246]
33	[Aib]VLDLFRELLNELLEALKQKLK [peptide 32]
25	PVLDLFNELLRELLEALQKKLK [peptide 40]
10	Ac-DWLKAFYDKVAEKLKEAF-NH2 [peptide 240]
11	Ac-EWLEAFYKKVLEKLKELF-NH2 [peptide 239]

ACTIVITY (%) LCAT [%]	Binder
33	PVLDLFREKLNELLEALKQKLK [peptide 33]
18	PVLDLFRNLLEELLKALEQKLK [peptide 57]
31	PVLDWFRELLNELLEALKQKLK [peptide 35]
23	PVLDLFREKLNE[Aib]LEALKQKLK [peptide 46]
29	PVLDLFRELLNE[Aib]LEAWKQKLK [peptide 38]
0	Ac-PVLDLFRELLEEGKQKLK-NH2 [peptide 229]
20	PVLDLFWELLNE[Aib]LEALKQKLK [peptide 51]
19	PVLDLFRELLNEWLEALKQKLK [peptide 54]
25	[dP][dV][dL][dD][dE][dF][dR][dE][dK][dL][dN][dE][Aib][dL][dE][dA][dL][dK][dQ][dK][dL][dK] [peptide 44]
11	LDDLLQKWAEAFNQLLKK [peptide 237]
19	VVLDLFRELLNELLEALKQKLK [peptide 53]
25	PVLDLWRELLNE[Aib]LEALKQKLK [peptide 41]
22	XXLDLFRELLNELLEALKQKLK (D-Pro (p) at 1, D-Val (v) at 2) [peptide 48]
7	GIKKFLGSIWKFIKAFVG [peptide 242]
32	PVLD[Nal]FRELLNELLEALKQKLK (not fully specified) [peptide 34]
44	PVLDLFRELLNEL[Nal]EALKQKLK (not fully specified) [peptide 27]
29	PVLDLFREWLNELLEALKQKLK [peptide 37]
90	XVLDLFRELLNELLEALKQKLKK (D-Pro (p) at 1) [peptide 5]
25	PVLDLFRELLEELLKALKKKLK [peptide 39]
